Read-outs that look alike come from different tables or passages of the source.
What was measured:
Test in all cases: single-molecule pull-down
[1] = biological target: Ci-VSP phosphatase-only protein (PDo) (Ciona intestinalis)
[2] = biological target: Ci-VSP phosphatase-only protein (PDo) (Ciona intestinalis); remark: listed apart in the source
[3] = biological target: Ci-VSP voltage-sensing domain only protein (VSDo) (Ciona intestinalis)
[4] = biological target: Ci-VSP voltage-sensing domain only protein (VSDo) (Ciona intestinalis); remark: listed apart in the source
[5] = biological target: the molecule itself

Molecule: Ci-VSP phosphatase-only protein (PDo) (domain or fragment)
- percent of spots bleaching in a single step [1]: 80%
- stoichiometry N [1]: 2
- percent of spots bleaching in a single step [2]: 57%
- percent of spots bleaching in two steps [2]: 34%

Molecule: Ci-VSP voltage-sensing domain only protein (VSDo) (domain or fragment)
- percent of spots bleaching in a single step [3]: 65%
- stoichiometry N [3]: 2
- percent of spots bleaching in a single step [4]: 37%
- percent of spots bleaching in two steps [4]: 55%

B1: TREK1 channel, HA- and/or GFP-tagged (dimer and monomer controls) (natural protein)
chain: MLASASRERPGYTAGVAAPDLLDPKSAAQNSKPRLSFSSKPTVLASRVESDSAINVMKWKTVSTIFLVVVLYLIIGATVFKALEQPQEISQRTTIVIQKQTFIAQHACVNSTELDELIQQIVAAINAGIIPLGNSSNQVSHWDLGSSFFFAGTVITTIGFGNISPRTEGGKIFCIIYALLGIPLFGFLLAGVGDQLGTIFGKGIAKVEDTFIKWNVSQTKIRIISTIIFILFGCVLFVALPAVIFKHIEGWSALDAIYFVVITLTTIGFGDYVAGGSDIEYLDFYKPVVWFWILVGLAYFAAVLSMIGDWLRVISKKTKEEVGEFRAHAAEWTANVTAEFKETRRRLSVEIYDKFQRATSVKRKLSAELAGNHNQELTPCRRTLSVNHLTSEREVLPPLLKAESIYLNGLTPHCAGEDIAVIENMK
- stoichiometry N [5]: 2

B2: ASIC1A channel, HA- and GFP-tagged (trimer control) (natural protein)
chain: MELKTEEEEVGGVQPVSIQAFASSSTLHGLAHIFSYERLSLKRALWALCFLGSLAVLLCVCTERVQYYFCYHHVTKLDEVAASQLTFPAVTLCNLNEFRFSQVSKNDLYHAGELLALLNNRYEIPDTQMADEKQLEILQDKANFRSFKPKPFNMREFYDRAGHDIRDMLLSCHFRGEACSAEDFKVVFTRYGKCYTFNSGQDGRPRLKTMKGGTGNGLEIMLDIQQDEYLPVWGETDETSFEAGIKVQIHSQDEPPFIDQLGFGVAPGFQTFVSCQEQRLIYLPSPWGTCNAVTMDSDFFDSYSITACRIDCETRYLVENCNCRMVHMPGDAPYCTPEQYKECADPALDFLVEKDQEYCVCEMPCNLTRYGKELSMVKIPSKASAKYLAKKFNKSEQYIGENILVLDIFFEVLNYETIEQKKAYEIAGLLGDIGGQMGLFIGASILTVLELFDYAYEVIKHRLCRRGKCQKEAKRSSADKGVALSLDDVKRHNPCESLRGHPAGMTYAANILPHHPARGTFEDFTC
- stoichiometry N [5]: 3
